The supplement of paper PMC12338614
± gives the uncertainty stated by the source.

B1: library; numbered along this chain (parent)
chain: MEVVDPQQLGMFTEGELMSVGMDTFIHRIDSTEVIYQPRRKRAKLIGKYLMGDLLGEGSYGKVKEVLDSETLCRRAVKILKKKKLRRIPNGEANVKKEIQLLRRLRHKNVIQLVDVLYNEEKQKMYMVMEYCVCGMQEMLDSVPEKRFPVCQAHGYFCQLIDGLEYLHSQGIVHKDIKPGNLLLTTGGTLKISDLGVAEALHPFAADDTCRTSQGSPAFQPPEIANGLDTFSGFKVDIWSAGVTLYNITTGLYPFEGDNIYKLFENIGKGSYAIPGDCGPPLSDLLKGMLEYEPAKRFSIRQIRQHSWFRKKHPPAEAPVPIPPSPDTKDRWRSMTVVPYLEDLHGADEDEDLFDIEDDIIYTQDFTVPGQVPEEEASHNGQRRGLPKAVCMNGTEAAQLSTKSRAEGRAPNPARKACSASSKIRRLSACKQQ

Variants of: B1
Test: STK11 functional score (HeLa growth suppression), rescaled enrichment; synonymous median = 1, nonsense median = 0 (normalised score)
Conditions: with HeLa; variant type: missense
Outline: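 Functional scores are post/pre-selection log ratios corrected to wild type, rescaled to synonymous and nonsense medians, merged over codons and replicate transfections, and given bootstrapped error. They come from POPCode libraries of codon-optimised STK11 integrated by Bxb1 at an AAVS1 landing pad in HeLa, three regions each transfected three times, with BFP-negative, mCherry-positive integrants sorted by FACS and tiled gDNA amplicons sequenced on NextSeq.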

V372D and V372P are within error of each other in STK11 functional score: 1.53 ± 0.33 for the first, 1.48 ± 0.24 for the second.

K423A and I99M are within error of each other in STK11 functional score: 0.687 ± 0.66 for the first, 1.07 ± 0.36 for the second.

L286W and C132I are within error of each other in STK11 functional score: 1.16 ± 0.093 for the first, 1.32 ± 0.25 for the second.

L113E and G385D are within error of each other in STK11 functional score: 1.13 ± 0.53 for the first, 1.3 ± 0.37 for the second.

Going from K84C to E98A, the STK11 functional score falls from 1.68 ± 0.42 to 0.326 ± 0.083.

E98S and R415F are within error of each other in STK11 functional score: 1.49 ± 0.16 for the first, 0.952 ± 0.52 for the second.

Compared with T13P, T13W is lower in STK11 functional score: 1.58 ± 0.38 for the first, 0.14 ± 0.079 for the second.

E396H and R426T are within error of each other in STK11 functional score: 1.55 ± 0.14 for the first, 1.17 ± 0.53 for the second.

R426G and M22W are within error of each other in STK11 functional score: 1.1 ± 0.26 for the first, 0.633 ± 0.55 for the second.

E70C and A398I are within error of each other in STK11 functional score: 1.39 ± 0.52 for the first, 1.13 ± 0.64 for the second.

Compared with A398L, A398Q is higher in STK11 functional score: 1.16 ± 0.15 for the first, 1.58 ± 0.22 for the second.

S69P and D162I are within error of each other in STK11 functional score: 1.04 ± 0.15 for the first, 1.05 ± 0.58 for the second.

R384C and R384L are within error of each other in STK11 functional score: 1.14 ± 0.5 for the first, 1.43 ± 0.15 for the second.

T336P and K97T are within error of each other in STK11 functional score: 1.18 ± 0.18 for the first, 1.32 ± 0.48 for the second.

Compared with K191R, P326Y is lower in STK11 functional score: 1.42 ± 0.19 for the first, 0.263 ± 0.093 for the second.

A93H and A93P are within error of each other in STK11 functional score: 1.66 ± 0.18 for the first, 1.68 ± 0.42 for the second.

L17V and F148M are within error of each other in STK11 functional score: 1.35 ± 0.12 for the first, 1.3 ± 0.082 for the second.

V66L and V66Q are within error of each other in STK11 functional score: 1.1 ± 0.11 for the first, 1.08 ± 0.41 for the second.

V66W and Q399C are within error of each other in STK11 functional score: 0.62 ± 0.19 for the first, 1.23 ± 0.5 for the second.

First: P221V
Second: P221F
The STK11 functional score of the first is higher: 1.01 ± 0.12 for the first, -0.0165 ± 0.09 for the second.

First: H306R
Second: G188I
The STK11 functional score of the first is lower: 0.628 ± 0.086 for the first, 1.04 ± 0.29 for the second.

Going from G188V to Y272I, the STK11 functional score rises from 0.388 ± 0.11 to 1.08 ± 0.3.

Going from D352S to S299F, the STK11 functional score falls from 1.57 ± 0.14 to 0.544 ± 0.1.

S299C and H345V are within error of each other in STK11 functional score: 1.3 ± 0.2 for the first, 1.22 ± 0.44 for the second.

G10S and G10Y are within error of each other in STK11 functional score: 1.17 ± 0.092 for the first, 1.18 ± 0.15 for the second.

Going from E130R to D208G, the STK11 functional score rises from 0.369 ± 0.14 to 1.37 ± 0.23.

Q137G and P254C are within error of each other in STK11 functional score: 0.734 ± 0.14 for the first, 0.821 ± 0.47 for the second.

G233A and G233L are within error of each other in STK11 functional score: 1.3 ± 0.6 for the first, 1.57 ± 0.32 for the second.

E317V and P413S are within error of each other in STK11 functional score: 1.36 ± 0.11 for the first, 1.46 ± 0.27 for the second.

Compared with L245W, R425Y is higher in STK11 functional score: -0.0585 ± 0.093 for the first, 1.54 ± 0.29 for the second.

R425C and L427V are within error of each other in STK11 functional score: 1.27 ± 0.36 for the first, 1.21 ± 0.27 for the second.

L427T and P294M are within error of each other in STK11 functional score: 1.59 ± 0.16 for the first, 1.13 ± 0.4 for the second.

K262W and K262I are within error of each other in STK11 functional score: 1.05 ± 0.19 for the first, 0.763 ± 0.14 for the second.

A205S and A205L are within error of each other in STK11 functional score: 1.18 ± 0.34 for the first, 0.703 ± 0.24 for the second.

Compared with N247I, T244S is lower in STK11 functional score: 1.16 ± 0.15 for the first, 0.613 ± 0.1 for the second.

G187W and I29W are within error of each other in STK11 functional score: 1.65 ± 0.13 for the first, 1.63 ± 0.21 for the second.

I29G and E349C are within error of each other in STK11 functional score: 1.16 ± 0.8 for the first, 1.1 ± 0.42 for the second.

E349P and E349F are within error of each other in STK11 functional score: 1.41 ± 0.14 for the first, 0.989 ± 0.64 for the second.

Q123A and K416W are within error of each other in STK11 functional score: 1.11 ± 0.28 for the first, 0.693 ± 0.27 for the second.

Compared with K416G, N90L is lower in STK11 functional score: 1.55 ± 0.31 for the first, 1 ± 0.12 for the second.

Q214H and Q214N are within error of each other in STK11 functional score: 1.39 ± 0.53 for the first, 1.27 ± 0.31 for the second.

Compared with L167A, M136Y is lower in STK11 functional score: 0.629 ± 0.09 for the first, -0.238 ± 0.083 for the second.

M136R and M136H are within error of each other in STK11 functional score: -0.124 ± 0.086 for the first, -0.214 ± 0.081 for the second.

E357R and N226L are within error of each other in STK11 functional score: 1.36 ± 0.17 for the first, 1.08 ± 0.2 for the second.

F234S and Y292P are within error of each other in STK11 functional score: 1.1 ± 0.2 for the first, 1.38 ± 0.19 for the second.

Compared with L353D, P314Y is lower in STK11 functional score: 1.61 ± 0.16 for the first, 0.95 ± 0.15 for the second.

D330R and V110T are within error of each other in STK11 functional score: 1.47 ± 0.25 for the first, 1.51 ± 0.13 for the second.

A43P and S169Y are within error of each other in STK11 functional score: 1.37 ± 0.46 for the first, 1.54 ± 0.34 for the second.

Q382T and Q382C are within error of each other in STK11 functional score: 1.29 ± 0.33 for the first, 1.15 ± 0.19 for the second.

Q382F and S421E are within error of each other in STK11 functional score: 1.14 ± 0.28 for the first, 1.56 ± 0.28 for the second.

A347T and A347M are within error of each other in STK11 functional score: 1.33 ± 0.14 for the first, 1.54 ± 0.17 for the second.

A347R and G279H are within error of each other in STK11 functional score: 1.54 ± 0.18 for the first, 1.6 ± 0.31 for the second.

First: L55G
Second: S19R
The STK11 functional score of the first is higher: 1.53 ± 0.23 for the first, 0.749 ± 0.093 for the second.

S19V and Q364W are within error of each other in STK11 functional score: 0.694 ± 0.18 for the first, 0.791 ± 0.5 for the second.

Compared with E342M, H168R is lower in STK11 functional score: 1.46 ± 0.14 for the first, 0.838 ± 0.47 for the second.

Going from Y36A to E291S, the STK11 functional score rises from 0.73 ± 0.18 to 1.38 ± 0.14.

E291V and E291G are within error of each other in STK11 functional score: 1.28 ± 0.14 for the first, 0.922 ± 0.22 for the second.

First: S232C
Second: W239K
The STK11 functional score of the first is higher: 1.17 ± 0.22 for the first, 0.155 ± 0.096 for the second.

H154I and E376M are within error of each other in STK11 functional score: 0.492 ± 0.09 for the first, 0.943 ± 0.45 for the second.

E376D and E165M are within error of each other in STK11 functional score: 0.267 ± 0.78 for the first, 0.0982 ± 0.39 for the second.

I274V and I360F are within error of each other in STK11 functional score: 0.7 ± 0.15 for the first, 0.809 ± 0.12 for the second.

G61H and V236C are within error of each other in STK11 functional score: 1.41 ± 0.35 for the first, 1.44 ± 0.47 for the second.

First: I177A
Second: I177W
The STK11 functional score of the first is higher: 0.128 ± 0.22 for the first, -0.249 ± 0.086 for the second.

E256A and E256V are within error of each other in STK11 functional score: 0.686 ± 0.64 for the first, 0.873 ± 0.33 for the second.

E256W and E256D are within error of each other in STK11 functional score: 1.65 ± 0.13 for the first, 1.63 ± 0.4 for the second.

Going from D176S to T24A, the STK11 functional score rises from -0.0857 ± 0.087 to 1.36 ± 0.46.

Compared with T24R, L183H is higher in STK11 functional score: 0.782 ± 0.14 for the first, 1.43 ± 0.24 for the second.

R28V and G56M are within error of each other in STK11 functional score: 1.03 ± 0.29 for the first, 1 ± 0.093 for the second.

Compared with T250S, C151I is lower in STK11 functional score: 1.37 ± 0.27 for the first, 0.722 ± 0.19 for the second.

C151R and E92W are within error of each other in STK11 functional score: 1.07 ± 0.59 for the first, 1.03 ± 0.61 for the second.

E92A and F366V are within error of each other in STK11 functional score: 1.31 ± 0.35 for the first, 1.42 ± 0.54 for the second.

Going from T249E to T249N, the STK11 functional score rises from -0.289 ± 0.13 to 0.652 ± 0.27.

First: G276R
Second: D53V
The STK11 functional score of the first is higher: 1.35 ± 0.18 for the first, 0.606 ± 0.096 for the second.

Compared with H202L, K175R is higher in STK11 functional score: 0.766 ± 0.12 for the first, 1.47 ± 0.16 for the second.

G408K and G408M are the same in STK11 functional score: 1.56 ± 0.24 for the first, 1.56 ± 0.17 for the second.

First: G408V
Second: P323K
The STK11 functional score of the first is lower: 1.2 ± 0.11 for the first, 1.58 ± 0.15 for the second.

K287F and D348R are within error of each other in STK11 functional score: 1.25 ± 0.2 for the first, 1.2 ± 0.26 for the second.

W332A and W332R are within error of each other in STK11 functional score: 1.56 ± 0.26 for the first, 1.55 ± 0.35 for the second.

Compared with R405N, N109G is lower in STK11 functional score: 1.33 ± 0.36 for the first, 0.374 ± 0.15 for the second.

N109A and N181D are within error of each other in STK11 functional score: 0.625 ± 0.74 for the first, -0.134 ± 0.054 for the second.

Compared with R304F, E375D is higher in STK11 functional score: 0.0963 ± 0.15 for the first, 1.58 ± 0.34 for the second.

L102E and D365M are within error of each other in STK11 functional score: 1.51 ± 0.11 for the first, 1.59 ± 0.14 for the second.

G171V and S283T are within error of each other in STK11 functional score: 1.25 ± 0.26 for the first, 1.47 ± 0.17 for the second.

F204L showed an STK11 functional score of 1.17 ± 0.4.
